# B1: betaine aldehyde dehydrogenase from spinach (Spinacia oleracea) (enzyme)
# chain: MAFPIPARQLFIDGEWREPIKKNRIPVINPSTEEIIGDIPAATAEDVEVAVVAARRAFRRNNWSATSGAHRATYLRAIAAKITEKKDHFVKLETIDSGKPFDEAVLDIDDVASCFEYFAGQAEALDGKQKAPVTLPMERFKSHVLRQPLGVVGLISPWNYPLLMATWKIAPALAAGCTAVLKPSELASVTCLEFGEVCNEVGLPPGVLNILTGLGPDAGAPLVSHPDVDKIAFTGSSATGSKVMASAAQLVKPVTLELGGKSPIVVFEDVDIDKVVEWTIFGCFWTNGQICSATSRLLVHESIAAEFVDKLVKWTKNIKISDPFEEGCRLGPVISKGQYDKIMKFISTAKSEGATILYGGSRPEHLKKGYYIEPTIVTDISTSMQIWKEEVFGPVLCVKTFSSEDEAIALANDTEYGLAAAVFSNDLERCERITKALEVGAVWVNCSQPCFVQAPWGGIKRSGFGRELGEWGIQNYLNIKQVTQDISDEPWGWYKS
# notes: betaine aldehyde dehydrogenase (BADH, ALDH10) of Spinacia oleracea; recombinant; Homodimer in K-buffer; associates into tetramers in the non-salt buffer; also called SoBADH; ALDH10; source: E. coli, purified to homogeneity
# B2: betaine aldehyde dehydrogenase from Pseudomonas aeruginosa (enzyme)
# chain: MARFEEQKLYIGGRYVEASSGATFETINPANGEVLAKVQRASREDVERAVQSAVEGQKVWAAMTAMQRSRILRRAVDILRERNDELAALETLDTGKPLAETRSVDIVTGADVLEYYAGLVPAIEGEQIPLRETSFVYTRREPLGVVAGIGAWNYPVQIALWKSAPALAAGNAMIFKPSEVTPLTALKLAEIYTEAGVPDGVFNVLTGSGREVGQWLTEHPLIEKISFTGGTSTGKKVMASASSSSLKEVTMELGGKSPLIIFPDADLDRAADIAVMANFFSSGQVCTNGTRVFIHRSQQARFEAKVLERVQRIRLGDPQDENTNFGPLVSFPHMESVLGYIESGKAQKARLLCGGERVTDGAFGKGAYVAPTVFTDCRDDMTIVREEIFGPVMSILVYDDEDEAIRRANDTEYGLAAGVVTQDLARAHRAIHRLEAGICWINTWGESPAEMPVGGYKQSGVGRENGLTTLAHYTRIKSVQVELGDYASVF
# notes: betaine aldehyde dehydrogenase (BADH, ALDH9) of Pseudomonas aeruginosa; recombinant; Homotetramer; also called PaBADH; ALDH9; source: E. coli, purified to homogeneity
# Columns and labels:
# [1] = molecular target: the molecule itself; test: dynamic light scattering; 20°C; K-buffer (non-salt buffer plus 250 mM KCl); 0.25 mg/ml enzyme
# [2] = molecular target: the molecule itself; test: dynamic light scattering; 20°C; non-salt buffer (1 mM PIPES-TEA hydroxide pH 6.9, 1 mM EDTA, 0.5 mM DTT); 0.25 mg/ml enzyme; for SoBADH: dimers to tetramer
# [3] = molecular target: the molecule itself; test: SEC; Superdex 200 HR 10/30, room temperature; K-buffer (1 mM PIPES-TEA hydroxide pH 6.9, 1 mM EDTA, 0.5 mM DTT, 250 mM KCl); 0.25 mg/ml protein
Protein,stoichiometry N [1],stoichiometry N [2],stoichiometry N [3]
B1,2,4,
B2,,,4
